Source: patent US20250059297A1

Columns and labels:
[1] = molecular target: human HER2 (hHER2) on cells (human); test: cell-based or functional assay
[2] = molecular target: HER2 and TROP2 expressed together on NCI-H292 cells and NCI-N87 cells (human); test: cell-based or functional assay
[3] = molecular target: human HER2 (hHER2) on cells (human); test: flow cytometry, NCI-N87 cells (express HER2 and TROP2)
[4] = molecular target: human HER2 (hHER2) on cells (human); test: flow cytometry, NCI-H292 cells (express HER2 and TROP2)

endocytosis, direct detection: MFI [1] | endocytosis, direct detection: Percentage of Positive Population [1] [%] | endocytosis, indirect detection: MFI [1] | endocytosis, indirect detection: Percentage of Positive Population [1] [%] | endocytosis: MFI [1] | endocytosis: Percentage of Positive (%) [1] [%] | endocytosis, direct detection: MFI [2] | endocytosis, direct detection: Percentage of Positive Population [2] [%] | endocytosis, indirect detection: MFI [2] | endocytosis, indirect detection: Percentage of Positive Population [2] [%] | flow cytometry test result (%) [3] [%] | flow cytometry test result (%) [4] [%] | Substance
15700 | 74.7 | 21000 | 79.5 | 100000 | 97.1 |  |  |  |  |  |  | Pertuzumab analog (antibody)
 |  |  |  | 9840 | 1.1 | 4900 | 1.86 | 4920 | 1.88 |  |  | Isotype control (antibody)
18900 | 82.5 | 23400 | 87.3 | 50400 | 88 |  |  |  |  | 98.5 | 97.8 | Trastuzumab analog (antibody)
